Results from publication PMC4357725 (Nucleic Acids Research, 2015).

Molecular target: T1, ϕ29 DNA polymerase, wild type (bacteriophage ϕ29, UniProt P03680 1-575)
T1 construct: DNA polymerase of bacteriophage ϕ29, wild type; 66 kDa; also called viral DNA polymerase
T1 sequence (looked up): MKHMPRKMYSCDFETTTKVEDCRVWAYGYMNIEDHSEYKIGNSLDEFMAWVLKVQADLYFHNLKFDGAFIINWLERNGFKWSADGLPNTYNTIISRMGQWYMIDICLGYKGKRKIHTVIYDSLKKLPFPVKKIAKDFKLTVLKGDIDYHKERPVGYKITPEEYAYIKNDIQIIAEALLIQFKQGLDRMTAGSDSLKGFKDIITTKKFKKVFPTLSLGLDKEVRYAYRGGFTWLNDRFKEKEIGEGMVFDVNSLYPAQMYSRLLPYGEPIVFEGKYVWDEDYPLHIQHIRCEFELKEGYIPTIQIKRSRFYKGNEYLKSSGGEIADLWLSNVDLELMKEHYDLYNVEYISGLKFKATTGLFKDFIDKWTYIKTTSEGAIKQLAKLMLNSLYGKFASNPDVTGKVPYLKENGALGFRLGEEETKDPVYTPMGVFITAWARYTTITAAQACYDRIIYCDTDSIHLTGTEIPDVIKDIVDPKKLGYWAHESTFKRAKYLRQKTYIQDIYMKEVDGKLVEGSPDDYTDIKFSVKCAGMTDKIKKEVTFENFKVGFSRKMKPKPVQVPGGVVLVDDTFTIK
Experiment: co-sedimentation; glycerol gradient sedimentation of DNA polymerase with TP N-terminal mutants (Supplementary Figure S2)
Settings: both partners purified

B1: ϕ29 TP mutant K32A/K33A/K34A (natural protein, bacteriophage ϕ29, UniProt P03681 1-266, looked up)
chain: MARSPRIRIKDNDKAEYARLVKNTKAKIARTAAAYGVDLTAEIDIPDLDSFETRAQFNKWKEQASSFTNRANMRYQFEKNAYGVVASKAKIAEIERNTKEVQRLVDEKIKAMKDKEYYAGGKPQGTIEQRIAMTSPAHVTGINRPHDFDFSKVRSYSRLRTLEESMEMRTDPQYYEKKMIQLQLNFIKSVEGSFNSFDAADELIEELKKIPPDDFYELFLRISEISFEEFDSEGNTVENVEGNVYKILSYLEQYRRGDFDLSLKGF
notes: terminal protein (TP) of bacteriophage ϕ29 with K32A, K33A and K34A
  binding result: binds
